Data as given in patent US20260008857A1 (FLAGSHIP PIONEERING INNOVATIONS VI, published 2026).
Like-named read-outs stand apart in the source and are kept apart here.

Legend:
[1] = biological target: T1, human IL-4Rα (interleukin 4 receptor subunit alpha) (human, UniProt P24394 26-232, limits assumed); assay: indirect ELISA on plate-coated recombinant human IL-4Rα (2 ug/mL), anti-human IgG Fc-HRP, A450
T1 sequence (looked up): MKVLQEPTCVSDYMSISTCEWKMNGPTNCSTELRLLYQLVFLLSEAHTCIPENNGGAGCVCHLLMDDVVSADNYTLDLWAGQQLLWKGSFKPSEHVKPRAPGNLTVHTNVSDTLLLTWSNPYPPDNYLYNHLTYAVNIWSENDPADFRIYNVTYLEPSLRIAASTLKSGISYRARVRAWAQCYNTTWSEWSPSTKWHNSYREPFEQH

[2] = biological target: T1, human IL-4Rα (interleukin 4 receptor …); assay: SPR, Biacore 8K+ multi-cycle capture kinetics; antibody captured on goat anti-human polyclonal surface, human IL-4Rα as analyte, 25 C, 1:1 model
[3] = biological target: T2, IL-4Rα on human primary cells (primary B cells, whole blood B and T cells, PBMCs) (human, UniProt P24394 26-825); assay: cell-based or functional assay
T2 sequence (looked up): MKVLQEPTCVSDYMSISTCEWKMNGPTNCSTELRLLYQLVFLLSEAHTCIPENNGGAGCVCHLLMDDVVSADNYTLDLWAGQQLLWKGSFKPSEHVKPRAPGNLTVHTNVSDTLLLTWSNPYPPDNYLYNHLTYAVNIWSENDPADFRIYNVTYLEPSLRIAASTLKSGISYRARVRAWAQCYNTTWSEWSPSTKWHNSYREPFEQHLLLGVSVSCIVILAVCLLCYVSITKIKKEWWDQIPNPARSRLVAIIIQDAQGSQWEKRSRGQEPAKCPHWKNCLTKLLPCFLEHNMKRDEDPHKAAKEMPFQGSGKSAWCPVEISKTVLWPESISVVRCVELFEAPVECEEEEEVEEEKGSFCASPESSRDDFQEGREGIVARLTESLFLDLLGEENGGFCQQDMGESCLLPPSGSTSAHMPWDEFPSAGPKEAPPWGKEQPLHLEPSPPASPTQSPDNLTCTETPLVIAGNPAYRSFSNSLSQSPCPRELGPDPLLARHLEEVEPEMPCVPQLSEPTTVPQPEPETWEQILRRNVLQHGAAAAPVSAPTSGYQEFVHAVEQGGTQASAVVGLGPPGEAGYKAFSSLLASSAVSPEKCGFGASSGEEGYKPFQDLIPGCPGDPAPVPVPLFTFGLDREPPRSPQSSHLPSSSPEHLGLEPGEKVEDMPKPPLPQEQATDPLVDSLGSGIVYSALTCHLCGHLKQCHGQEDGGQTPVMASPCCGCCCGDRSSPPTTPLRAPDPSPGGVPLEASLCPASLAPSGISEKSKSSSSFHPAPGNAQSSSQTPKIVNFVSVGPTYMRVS

[4] = biological target: T1, human IL-4Rα (interleukin 4 receptor …); assay: SPR, Carterra LSA non-regenerative capture kinetics; antibody captured on goat anti-human polyclonal lawn, human IL-4Rα as analyte, 25 C, 1:1 model; average ± SD of technical replicates
[5] = biological target: T1, human IL-4Rα (interleukin 4 receptor …); assay: indirect ELISA on plate-coated recombinant human IL-4Rα (2 ug/mL), anti-human IgG Fc-HRP, A450; remark: listed apart in the source
[6] = biological target: T1, human IL-4Rα (interleukin 4 receptor …); assay: cell-based or functional assay

B1: AB-3c (antibody, human IgG4 S228P, kappa)
heavy chain: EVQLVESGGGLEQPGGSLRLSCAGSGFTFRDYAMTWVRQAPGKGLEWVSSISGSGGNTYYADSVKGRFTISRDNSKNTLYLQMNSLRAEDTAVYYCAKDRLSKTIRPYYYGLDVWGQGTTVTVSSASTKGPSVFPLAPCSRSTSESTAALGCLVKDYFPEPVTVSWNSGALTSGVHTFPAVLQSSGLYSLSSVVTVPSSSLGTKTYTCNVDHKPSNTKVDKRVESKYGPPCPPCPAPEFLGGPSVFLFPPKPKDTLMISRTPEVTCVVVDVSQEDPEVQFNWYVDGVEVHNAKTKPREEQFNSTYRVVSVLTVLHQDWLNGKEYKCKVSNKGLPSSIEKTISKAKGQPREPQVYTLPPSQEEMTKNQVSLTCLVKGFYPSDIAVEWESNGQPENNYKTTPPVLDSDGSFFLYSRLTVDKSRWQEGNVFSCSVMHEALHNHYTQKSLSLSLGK
light chain: DIVMTQSPLSLPVTPGEPASISCRSSQSLLYSTGYNYLDWYLQKSGQSPQLLIYLGSNRASGVPDRFSGSGSGTDFTLKISRVEAEDVGFYYCMQSLSTPYTFGQGTKLEIKRTVAAPSVFIFPPSDEQLKSGTASVVCLLNNFYPREAKVQWKVDNALQSGNSQESVTEQDSKDSTYSLSSTLTLSKADYEKHKVYACEVTHQGLSSPVTKSFNRGEC
notes: hIgG4 WT ('c')
- EC50 (read off the curve) [1]: ~100 pM

B2: AB-13c (antibody, human IgG4 S228P, kappa)
heavy: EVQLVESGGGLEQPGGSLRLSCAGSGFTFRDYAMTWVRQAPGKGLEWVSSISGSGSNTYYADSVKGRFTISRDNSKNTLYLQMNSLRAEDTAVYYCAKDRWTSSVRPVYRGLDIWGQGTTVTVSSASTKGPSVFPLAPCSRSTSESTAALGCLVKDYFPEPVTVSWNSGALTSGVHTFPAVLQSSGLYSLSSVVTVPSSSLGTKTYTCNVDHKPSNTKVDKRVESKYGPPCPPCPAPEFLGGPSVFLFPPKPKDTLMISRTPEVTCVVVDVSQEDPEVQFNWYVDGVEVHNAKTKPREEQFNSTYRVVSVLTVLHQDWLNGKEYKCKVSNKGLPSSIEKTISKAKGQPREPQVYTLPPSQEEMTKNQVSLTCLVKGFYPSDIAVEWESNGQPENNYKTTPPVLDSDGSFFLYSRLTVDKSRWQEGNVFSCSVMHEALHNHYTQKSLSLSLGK
light: DIVMTQSPLSLPVTPGEPASISCRSSQSLLYSHGYNYLDWYLQKSGQSPQLLIYLASNRASGVPDRFSGSGSGTDFTLKISRVEAEDVGFYYCMQSLYTPYTFGQGTKLEIKRTVAAPSVFIFPPSDEQLKSGTASVVCLLNNFYPREAKVQWKVDNALQSGNSQESVTEQDSKDSTYSLSSTLTLSKADYEKHKVYACEVTHQGLSSPVTKSFNRGEC
notes: hIgG4 wild type, kappa
- Kd [2]: 26.6 pM
- koff [2]: 2.22e-05 s⁻¹
- kon [2]: 836000 M⁻¹ s⁻¹
- EC50 (read off the curve) [1]: ~50 pM
- Inhibition of CD23 Expression by Primary B cells (IC50), Donor 13 [3]: 24900 pM
- Inhibition of CD23 Expression by Primary B cells (IC50), Donor 52 [3]: 23000 pM
- Inhibition of CD23 Expression by Primary B cells (IC50), Donor 53 [3]: 26200 pM
- Inhibition of CD23 Expression by Primary B cells (IC50), Donor 56 [3]: 25800 pM
- Kd [4]: ≤ 120 pM

B3: AB-9d (antibody, human IgG1, kappa)
heavy chain: not shown
light chain: DIVMTQSPLSLPVTPGEPASISCRSSQSLLYSLGYNYLDWYLQKSGQSPQLLIYLASNRASGVPDRFSGSGSGTDFTLKISRVEAEDVGFYYCMQSLQTPYTFGQGTKLEIKRTVAAPSVFIFPPSDEQLKSGTASVVCLLNNFYPREAKVQWKVDNALQSGNSQESVTEQDSKDSTYSLSSTLTLSKADYEKHKVYACEVTHQGLSSPVTKSFNRGEC
notes: hIgG1 ('d')
- EC50 (read off the curve) [5]: ~20 pM

B4: AB-9c (antibody, human IgG4 S228P, kappa)
heavy: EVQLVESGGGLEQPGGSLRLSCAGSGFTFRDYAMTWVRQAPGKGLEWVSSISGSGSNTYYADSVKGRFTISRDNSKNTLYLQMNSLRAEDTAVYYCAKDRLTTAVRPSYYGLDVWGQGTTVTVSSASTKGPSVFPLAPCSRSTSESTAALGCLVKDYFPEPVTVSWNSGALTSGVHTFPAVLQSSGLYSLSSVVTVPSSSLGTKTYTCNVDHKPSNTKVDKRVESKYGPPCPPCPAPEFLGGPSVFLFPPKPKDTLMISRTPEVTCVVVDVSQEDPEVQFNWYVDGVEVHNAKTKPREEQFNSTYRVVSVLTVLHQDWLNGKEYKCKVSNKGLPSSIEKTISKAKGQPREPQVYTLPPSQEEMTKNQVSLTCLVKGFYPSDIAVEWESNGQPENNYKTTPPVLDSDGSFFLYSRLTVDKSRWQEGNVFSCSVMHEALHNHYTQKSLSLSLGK
light: DIVMTQSPLSLPVTPGEPASISCRSSQSLLYSLGYNYLDWYLQKSGQSPQLLIYLASNRASGVPDRFSGSGSGTDFTLKISRVEAEDVGFYYCMQSLQTPYTFGQGTKLEIKRTVAAPSVFIFPPSDEQLKSGTASVVCLLNNFYPREAKVQWKVDNALQSGNSQESVTEQDSKDSTYSLSSTLTLSKADYEKHKVYACEVTHQGLSSPVTKSFNRGEC
notes: hIgG4 WT, kappa
- EC50 (read off the curve) [1]: ~20 pM
- Kd [4]: 630 pM

B5: AB-1d (antibody, human IgG1, kappa, V domains shown)
VH: EVQLVESGGGLEQPGGSLRLSCAGSGFTFSDYAMTWVRQAPGKGLEWVSSISGSGGNTYYADSVKGRFTISRDNSKNTLYLQMNSLRAEDTAVYYCAKDALTIAIRPYYYGLDVWGQGTTVTVSS
VL: DIVMTQSPLSLPVTPGEPASISCRSSQSLDYSYGYNYLDWYLQKSGQSPQLLIYLASNRASGVPDRFSGSGSGTDFTLKISRVEAEDVGFYYCMQSLSTPYTFGQGTKLEIKR
notes: hIgG1 ('d')
- binding result [5]: binds

B6: AB-12d (antibody, human IgG1, kappa)
heavy chain: not shown
light chain: DIVMTQSPLSLPVTPGEPASISCRSSQSLLYSQGYNYLDWYLQKSGQSPQLLIYLASNRASGVPDRFSGSGSGTDFTLKISRVEAEDVGFYYCMQSLFTPYTFGQGTKLEIKRTVAAPSVFIFPPSDEQLKSGTASVVCLLNNFYPREAKVQWKVDNALQSGNSQESVTEQDSKDSTYSLSSTLTLSKADYEKHKVYACEVTHQGLSSPVTKSFNRGEC
- IC50 (read off the curve) [6]: ~400 pM
